{"source": "paper PMC7374751", "about": "“TIMP-3 facilitates binding of target metalloproteinases to the endocytic receptor LRP-1 and promotes scavenging of MMP-1” (Scientific Reports, 2020)", "binders": {"B1": {"name": "FLAG-tagged TIMP-3 (natural protein, UniProt P35625 24-211, looked up)", "chain": "CTCSPSHPQDAFCNSDIVIRAKVVGKKLVKEGPFGTLVYTIKQMKMYRGFTKMPHVQYIHTEASESLCGLKLEVNKYQYLLTGRVYDGKMYTGLCNFVERWDQLTLSQRKGLNYRYHLGCNCKIKSCYYLPCFVTSKNECLWTDMLSNFGYPGYQSKHYACIRQKGGYCSWYRGWAPPDKSIINATDP", "notes": "also called T3; [35S]TIMP-3"}}, "conditions_in_all_cases": "both partners purified", "key": {"[1]": {"molecular_target": "T1, MMP-13 (active enzyme of the inhibition assays) (UniProt P45452 20-471)", "T1 construct": "MMP-13 whose activity was measured (0.1 nM)", "assay": "enzyme inhibition kinetics (fluorogenic peptide substrates); apparent Ki; enzyme pre-incubated with TIMP-3 (0.5-100 nM) 1 h at 37 °C, equilibrium rate of substrate hydrolysis; TNC buffer (50 mM Tris-HCl pH 7.5, 150 mM NaCl, 10 mM CaCl2, 0.05% Brij-35, 0.02% NaN3), 37 °C; tight-binding equation"}, "[2]": {"molecular_target": "T2, FLAG-tagged ADAMTS-4 lacking the C-terminal spacer domain (ADAMTS4-2) (UniProt O75173 213-685)", "T2 construct": "ADAMTS-4 lacking the C-terminal spacer domain", "T2 sequence (looked up)": "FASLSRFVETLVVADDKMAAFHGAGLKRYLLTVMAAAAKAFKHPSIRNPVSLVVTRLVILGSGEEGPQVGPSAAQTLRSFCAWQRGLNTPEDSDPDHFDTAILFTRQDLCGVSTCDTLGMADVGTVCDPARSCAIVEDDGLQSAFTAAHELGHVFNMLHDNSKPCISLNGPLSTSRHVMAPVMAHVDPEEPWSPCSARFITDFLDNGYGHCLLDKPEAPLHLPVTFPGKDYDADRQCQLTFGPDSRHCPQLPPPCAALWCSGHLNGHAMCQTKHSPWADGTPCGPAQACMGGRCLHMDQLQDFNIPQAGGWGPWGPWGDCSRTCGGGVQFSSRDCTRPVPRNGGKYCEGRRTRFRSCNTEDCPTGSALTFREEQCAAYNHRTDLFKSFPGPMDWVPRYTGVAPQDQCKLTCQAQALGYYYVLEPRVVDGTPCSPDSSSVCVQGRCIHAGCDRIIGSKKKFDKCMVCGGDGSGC", "assay": "enzyme inhibition kinetics (fluorogenic peptide substrates); apparent Ki; enzyme pre-incubated with TIMP-3 (0.5-100 nM) 1 h at 37 °C, equilibrium rate of substrate hydrolysis; TNC buffer (50 mM Tris-HCl pH 7.5, 150 mM NaCl, 10 mM CaCl2, 0.05% Brij-35, 0.02% NaN3), 37 °C; tight-binding equation"}, "[3]": {"molecular_target": "T3, ADAM17 ectodomain (UniProt P78536 215-671)", "T3 construct": "ADAM17 ectodomain from R&D Systems; source: bought: R&D Systems", "T3 sequence (P78536 215-671)": "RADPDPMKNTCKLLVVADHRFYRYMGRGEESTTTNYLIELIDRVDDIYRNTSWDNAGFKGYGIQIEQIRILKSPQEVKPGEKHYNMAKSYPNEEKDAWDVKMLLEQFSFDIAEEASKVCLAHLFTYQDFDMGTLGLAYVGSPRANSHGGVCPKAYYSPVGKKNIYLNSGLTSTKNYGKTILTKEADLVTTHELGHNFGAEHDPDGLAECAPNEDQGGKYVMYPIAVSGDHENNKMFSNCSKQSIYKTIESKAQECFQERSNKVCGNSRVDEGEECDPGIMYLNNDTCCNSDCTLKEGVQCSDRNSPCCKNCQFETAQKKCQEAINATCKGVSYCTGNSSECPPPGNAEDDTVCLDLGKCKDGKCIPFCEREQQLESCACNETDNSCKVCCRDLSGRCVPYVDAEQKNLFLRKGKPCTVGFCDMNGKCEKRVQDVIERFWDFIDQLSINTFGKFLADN", "assay": "enzyme inhibition kinetics (fluorogenic peptide substrates); apparent Ki; enzyme pre-incubated with TIMP-3 (0.5-100 nM) 1 h at 37 °C, equilibrium rate of substrate hydrolysis; TNC buffer (50 mM Tris-HCl pH 7.5, 150 mM NaCl, 10 mM CaCl2, 0.05% Brij-35, 0.02% NaN3), 37 °C; tight-binding equation"}, "[4]": {"molecular_target": "T2, FLAG-tagged ADAMTS-4 lacking the …", "assay": "enzyme activity of pre-formed complexes against synthetic substrates; 10 nM [35S]TIMP-3 incubated with an equimolar concentration of metalloproteinase for 1 h at 37 °C; complex formation and stability over 24 h checked by activity"}, "[5]": {"molecular_target": "T4, MMP-3 catalytic domain (MMP-3ΔC) (UniProt P08254 100-272)", "T4 construct": "catalytic domain of MMP-3; pro-domain removed with APMA", "T4 sequence (P08254 100-272, stated change not applied)": "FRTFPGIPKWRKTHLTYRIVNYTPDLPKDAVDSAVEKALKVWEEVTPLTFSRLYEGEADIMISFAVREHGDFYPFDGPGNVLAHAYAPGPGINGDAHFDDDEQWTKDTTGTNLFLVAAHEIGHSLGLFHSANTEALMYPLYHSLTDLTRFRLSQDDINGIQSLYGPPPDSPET", "assay": "enzyme activity of pre-formed complexes against synthetic substrates; 10 nM [35S]TIMP-3 incubated with an equimolar concentration of metalloproteinase for 1 h at 37 °C; complex formation and stability over 24 h checked by activity"}, "[6]": {"molecular_target": "T5, MMP-9 (UniProt P14780 107-707)", "T5 construct": "MMP-9, active enzyme after removal of the pro-domain with APMA", "T5 sequence (P14780 107-707)": "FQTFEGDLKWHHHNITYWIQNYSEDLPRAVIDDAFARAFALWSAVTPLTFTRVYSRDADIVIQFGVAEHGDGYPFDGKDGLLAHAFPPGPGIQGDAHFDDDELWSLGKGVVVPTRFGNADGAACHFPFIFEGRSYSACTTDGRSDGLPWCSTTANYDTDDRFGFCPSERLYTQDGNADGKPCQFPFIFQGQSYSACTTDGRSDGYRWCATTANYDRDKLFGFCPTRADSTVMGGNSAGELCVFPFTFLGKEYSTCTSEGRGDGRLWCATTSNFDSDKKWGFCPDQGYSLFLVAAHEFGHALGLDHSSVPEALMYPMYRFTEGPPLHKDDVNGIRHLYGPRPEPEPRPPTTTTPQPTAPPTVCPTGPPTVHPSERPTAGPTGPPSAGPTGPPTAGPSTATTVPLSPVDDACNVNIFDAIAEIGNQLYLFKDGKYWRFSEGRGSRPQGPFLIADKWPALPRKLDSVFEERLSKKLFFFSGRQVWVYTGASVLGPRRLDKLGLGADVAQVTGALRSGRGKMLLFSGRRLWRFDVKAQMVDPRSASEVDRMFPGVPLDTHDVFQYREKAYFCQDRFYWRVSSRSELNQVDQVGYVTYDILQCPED", "assay": "enzyme activity of pre-formed complexes against synthetic substrates; 10 nM [35S]TIMP-3 incubated with an equimolar concentration of metalloproteinase for 1 h at 37 °C; complex formation and stability over 24 h checked by activity"}, "[7]": {"molecular_target": "T6, catalytic domain of human MMP-1 (MMP-1ΔC) (human, UniProt P03956 100-269)", "T6 construct": "catalytic domain of human MMP-1 (lacks the hemopexin domain); pro-domain removed with APMA", "T6 sequence (looked up)": "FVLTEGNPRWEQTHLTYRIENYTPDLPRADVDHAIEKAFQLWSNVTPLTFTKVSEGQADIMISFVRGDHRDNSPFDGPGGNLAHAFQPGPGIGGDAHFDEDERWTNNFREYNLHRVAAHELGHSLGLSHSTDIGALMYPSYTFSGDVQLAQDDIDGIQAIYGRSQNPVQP", "assay": "enzyme activity of pre-formed complexes against synthetic substrates; 10 nM [35S]TIMP-3 incubated with an equimolar concentration of metalloproteinase for 1 h at 37 °C; complex formation and stability over 24 h checked by activity"}, "[8]": {"molecular_target": "T7, FLAG-tagged ADAMTS-5 lacking the C-terminal thrombospondin domain (ADAMTS5-2) (UniProt Q9UNA0 262-874)", "T7 construct": "ADAMTS-5 lacking the C-terminal thrombospondin domain", "T7 sequence (looked up)": "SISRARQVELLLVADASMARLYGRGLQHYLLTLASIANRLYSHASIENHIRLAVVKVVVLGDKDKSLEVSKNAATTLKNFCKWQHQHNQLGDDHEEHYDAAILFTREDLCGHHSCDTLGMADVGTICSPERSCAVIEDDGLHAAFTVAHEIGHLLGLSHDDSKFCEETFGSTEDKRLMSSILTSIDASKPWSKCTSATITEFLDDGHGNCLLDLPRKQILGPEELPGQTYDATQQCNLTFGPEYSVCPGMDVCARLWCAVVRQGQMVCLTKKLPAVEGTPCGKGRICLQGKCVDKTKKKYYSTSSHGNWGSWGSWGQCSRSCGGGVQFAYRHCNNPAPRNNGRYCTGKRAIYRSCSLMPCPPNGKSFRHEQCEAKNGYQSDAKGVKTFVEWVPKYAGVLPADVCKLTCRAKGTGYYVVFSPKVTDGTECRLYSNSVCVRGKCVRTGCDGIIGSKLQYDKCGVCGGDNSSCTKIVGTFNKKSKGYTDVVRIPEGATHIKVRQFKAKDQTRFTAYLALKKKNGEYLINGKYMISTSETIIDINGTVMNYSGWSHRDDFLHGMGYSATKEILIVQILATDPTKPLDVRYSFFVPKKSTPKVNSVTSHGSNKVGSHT", "assay": "enzyme activity of pre-formed complexes against synthetic substrates; 10 nM [35S]TIMP-3 incubated with an equimolar concentration of metalloproteinase for 1 h at 37 °C; complex formation and stability over 24 h checked by activity"}, "[9]": {"molecular_target": "T8, ectodomain of MMP-14 (UniProt P50281 112-541)", "T8 construct": "also called MMP-14 ectodomain; MMP-14 catalytic domain", "assay": "enzyme activity of pre-formed complexes against synthetic substrates; 10 nM [35S]TIMP-3 incubated with an equimolar concentration of metalloproteinase for 1 h at 37 °C; complex formation and stability over 24 h checked by activity"}}}
{"binder": "B1", "values": [{"measurement": "Ki", "setting": "[1]", "value": "< 0.5", "unit": "nM"}, {"measurement": "Ki", "setting": "[2]", "value": 0.124, "unit": "nM"}, {"measurement": "Ki", "setting": "[3]", "value": 3.61, "unit": "nM"}, {"measurement": "stoichiometry N", "setting": "[4]", "value": 1}, {"measurement": "stoichiometry N", "setting": "[5]", "value": 1}, {"measurement": "stoichiometry N", "setting": "[6]", "value": 1}, {"measurement": "stoichiometry N", "setting": "[7]", "value": 1}, {"measurement": "stoichiometry N", "setting": "[8]", "value": 1}, {"measurement": "stoichiometry N", "setting": "[9]", "value": 1}]}
